According to paper doi:10.1101/2021.05.06.443019:

Target: ovine rBAT (purified with b^0,+AT) (ovine)
Assay: cryo-EM structure

Substance: ovine rBAT (purified with b^0,+AT) (from UniProt A0ACI6R3A5 1-685) (natural protein)
- stoichiometry N: 2
